Where a chain is given by its changes, count along the chain named.
B1: 601 (protein)
chain: LDNGLARTPTMGWLHWERFMCNLDCQEEPDSCISEKLFCEMAERMVSEGWKDAGYEYLCIDDCWMAPQRDSEGRLQADPQRFPHGIRQLANHVHSKGLKLGIYADVGNKTCAGFPGSFGYYDIDAQTFADWGVDLLKFDGCYCDSLENLADGYKHMSLALNRTGRSIVYSCEWPLYMWPFQKPNYTEIRQYCNHWRNFADIDDSWASIKSILDWTSRNQERIVDVAGPGGWNDPDMLVIGNFGLSWDQQVTQMALWAIMAAPLFMSNDLRHISPQAKALLQDKDVIAINQDPLGKQGYQLRKGDNFEVWERPLSGDAWAVAIINRQEIGGPRSYTIPVASLGKGVACNPACFITQLLPVKRQLGFYNWTSRLKSHINPTGTVLLQLENTMQMSLKDLL
modifications: Synthetic Polypeptide sequence of Variant No. 601 of mature Human GLA
B2: 527 (protein)
chain: B1 chain with C39M, H92E
modifications: Synthetic Polypeptide sequence of Variant No. 527 of mature Human GLA
B3: 607 (protein)
chain: B1 chain with T8L, C39M
modifications: Synthetic Polypeptide sequence of Variant No. 607 of mature Human GLA
B4: 524 (protein)
chain: B1 chain with C39M, N91V
modifications: Synthetic Polypeptide sequence of Variant No. 524 of mature Human GLA
B5: 522 (protein)
chain: B1 chain with C39M, E56K
modifications: Synthetic Polypeptide sequence of Variant No. 522 of mature Human GLA
B6: 605 (protein)
chain: B1 chain with T10P, C39M
modifications: Synthetic Polypeptide sequence of Variant No. 605 of mature Human GLA
B7: 608 (protein)
chain: B1 chain with T8Q, C39M
modifications: Synthetic Polypeptide sequence of Variant No. 608 of mature Human GLA
B8: 523 (protein)
chain: B1 chain with C39M, N91M
modifications: Synthetic Polypeptide sequence of Variant No. 523 of mature Human GLA
B9: 525 (protein)
chain: B1 chain with C39M, Q76H, W368A
modifications: Synthetic Polypeptide sequence of Variant No. 525 of mature Human GLA
B10: 606 (protein)
chain: B1 chain with T10P, C39M, R189L
modifications: Synthetic Polypeptide sequence of Variant No. 606 of mature Human GLA
B11: 526 (protein)
chain: B1 chain with C39M, R74H
modifications: Synthetic Polypeptide sequence of Variant No. 526 of mature Human GLA
B12: 528 (protein)
chain: B1 chain with C39M, D130Q
modifications: Synthetic Polypeptide sequence of Variant No. 528 of mature Human GLA
B13: 602 (protein)
chain: B1 chain with C39E
modifications: Synthetic Polypeptide sequence of Variant No. 602 of mature Human GLA
B14: 604 (protein)
chain: B1 chain with C39V
modifications: Synthetic Polypeptide sequence of Variant No. 604 of mature Human GLA
B15: 529 (protein)
chain: B1 chain with C39M, K182A
modifications: Synthetic Polypeptide sequence of Variant No. 529 of mature Human GLA
B16: 603 (protein)
chain: B1 chain with C39R
modifications: Synthetic Polypeptide sequence of Variant No. 603 of mature Human GLA

Assay: HTP-analysis of supernatants pretreated with acid (MUGal hydrolysis)
Format: biochemical
Conditions: activity of the variant/activity of Rd3BB (SEQ ID NO: 13); challenge at pH 3.7
Procedure, shortened: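 Yeast INVSc1 supernatant, GLA variants; acid challenge: McIlvaine pH 3.3-4.3, 37° C., 1-3 h. Assay: MUGal in McIlvaine pH 4.8 plus citrate pH 4.3, 37° C., 30-180 min, Na2CO3 stop, Ex 355/Em 448 nm.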

Row | Molecule | Relative Activity of GLA Variants After Challenge at pH 3.7
1 | B1 | + (+ = 1.5 to 5 relative activity over Rd3BB (SEQ ID NO: 13))
2 | B2 | + (+ = 1.5 to 5 relative activity over Rd3BB (SEQ ID NO: 13))
3 | B3 | + (+ = 1.5 to 5 relative activity over Rd3BB (SEQ ID NO: 13))
4 | B4 | + (+ = 1.5 to 5 relative activity over Rd3BB (SEQ ID NO: 13))
5 | B5 | +++ (+++ = >10 relative activity over Rd3BB (SEQ ID NO: 13))
6 | B6 | +++ (+++ = >10 relative activity over Rd3BB (SEQ ID NO: 13))
7 | B7 | + (+ = 1.5 to 5 relative activity over Rd3BB (SEQ ID NO: 13))
8 | B8 | + (+ = 1.5 to 5 relative activity over Rd3BB (SEQ ID NO: 13))
9 | B9 | ++ (++ = >5 to 10 relative activity over Rd3BB (SEQ ID NO: 13))
10 | B10 | +++ (+++ = >10 relative activity over Rd3BB (SEQ ID NO: 13))
11 | B11 | + (+ = 1.5 to 5 relative activity over Rd3BB (SEQ ID NO: 13))
12 | B12 | + (+ = 1.5 to 5 relative activity over Rd3BB (SEQ ID NO: 13))
13 | B13 | + (+ = 1.5 to 5 relative activity over Rd3BB (SEQ ID NO: 13))
14 | B14 | + (+ = 1.5 to 5 relative activity over Rd3BB (SEQ ID NO: 13))
15 | B15 | + (+ = 1.5 to 5 relative activity over Rd3BB (SEQ ID NO: 13))
16 | B16 | + (+ = 1.5 to 5 relative activity over Rd3BB (SEQ ID NO: 13))

Assay: HTP-analysis of supernatants pretreated with base (MUGal hydrolysis)
Format: biochemical
Conditions: activity of the variant/activity of Rd3BB (SEQ ID NO: 13); challenge at pH 9.7
Procedure, shortened: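 Fluorescence of released 4-MU (Ex 355 nm, Em 448 nm) after carbonate quench reports MUGal hydrolysis by GLA variants secreted from INVSc1 yeast. Before the acidic (pH 4.3-4.8) 30-180 min reaction at 37° C, supernatants had been pre-incubated at pH 7.0-9.7 for 1-18 h at 37° C.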

Row | Molecule | Relative Activity of GLA Variants After Challenge at pH 9.7
17 | B1 | + (+ = 1.5 to 5 relative activity over Rd3BB (SEQ ID NO: 13))
18 | B2 | ++ (++ = >5 to 10 relative activity over Rd3BB (SEQ ID NO: 13))
19 | B3 | ++ (++ = >5 to 10 relative activity over Rd3BB (SEQ ID NO: 13))
20 | B4 | + (+ = 1.5 to 5 relative activity over Rd3BB (SEQ ID NO: 13))
21 | B5 | ++ (++ = >5 to 10 relative activity over Rd3BB (SEQ ID NO: 13))
22 | B6 | ++ (++ = >5 to 10 relative activity over Rd3BB (SEQ ID NO: 13))
23 | B7 | + (+ = 1.5 to 5 relative activity over Rd3BB (SEQ ID NO: 13))
24 | B8 | + (+ = 1.5 to 5 relative activity over Rd3BB (SEQ ID NO: 13))
25 | B9 | ++ (++ = >5 to 10 relative activity over Rd3BB (SEQ ID NO: 13))
26 | B10 | ++ (++ = >5 to 10 relative activity over Rd3BB (SEQ ID NO: 13))
27 | B11 | ++ (++ = >5 to 10 relative activity over Rd3BB (SEQ ID NO: 13))
28 | B12 | ++ (++ = >5 to 10 relative activity over Rd3BB (SEQ ID NO: 13))
29 | B13 | ++ (++ = >5 to 10 relative activity over Rd3BB (SEQ ID NO: 13))
30 | B14 | ++ (++ = >5 to 10 relative activity over Rd3BB (SEQ ID NO: 13))
31 | B15 | ++ (++ = >5 to 10 relative activity over Rd3BB (SEQ ID NO: 13))
32 | B16 | + (+ = 1.5 to 5 relative activity over Rd3BB (SEQ ID NO: 13))

Assay: HTP-analysis of yeast culture supernatants, no challenge (MUGal hydrolysis)
Format: biochemical
Conditions: activity of the variant/activity of Rd3BB (SEQ ID NO: 13)
Procedure, shortened: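 Activity read as 4-methylumbelliferyl α-D-galactopyranoside hydrolysis: fluorescence (355/448 nm) after sodium carbonate stop, following 30-180 min at 37° C with 2 mM MUGal stock at pH 4.6–4.8. Enzyme source is unchallenged culture supernatant of INVSc1 yeast expressing GLA variants, grown 66-84 h at 30° C.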

Row | Molecule | Relative Activity of GLA Variants After No Challenge (NC)
33 | B1 | − (− = <1.5 relative activity to Rd3BB (SEQ ID NO: 13))
34 | B2 | + (+ = 1.5 to 5 relative activity over Rd3BB (SEQ ID NO: 13))
35 | B3 | + (+ = 1.5 to 5 relative activity over Rd3BB (SEQ ID NO: 13))
36 | B4 | − (− = <1.5 relative activity to Rd3BB (SEQ ID NO: 13))
37 | B5 | + (+ = 1.5 to 5 relative activity over Rd3BB (SEQ ID NO: 13))
38 | B6 | + (+ = 1.5 to 5 relative activity over Rd3BB (SEQ ID NO: 13))
39 | B7 | + (+ = 1.5 to 5 relative activity over Rd3BB (SEQ ID NO: 13))
40 | B8 | + (+ = 1.5 to 5 relative activity over Rd3BB (SEQ ID NO: 13))
41 | B9 | + (+ = 1.5 to 5 relative activity over Rd3BB (SEQ ID NO: 13))
42 | B10 | + (+ = 1.5 to 5 relative activity over Rd3BB (SEQ ID NO: 13))
43 | B11 | + (+ = 1.5 to 5 relative activity over Rd3BB (SEQ ID NO: 13))
44 | B12 | + (+ = 1.5 to 5 relative activity over Rd3BB (SEQ ID NO: 13))
45 | B13 | + (+ = 1.5 to 5 relative activity over Rd3BB (SEQ ID NO: 13))
46 | B14 | + (+ = 1.5 to 5 relative activity over Rd3BB (SEQ ID NO: 13))
47 | B15 | + (+ = 1.5 to 5 relative activity over Rd3BB (SEQ ID NO: 13))
48 | B16 | + (+ = 1.5 to 5 relative activity over Rd3BB (SEQ ID NO: 13))

Source: patent US11278600B2, “Human alpha-galactosidase variants” (Codexis, Inc., priority 2014, dated 2022)
